Assay results: the supplement of paper PMC9170038

System: MS2 coat protein
Assay: apparent KD of MS2 coat protein; higher = weaker reporter binding
Conditions: Eterna round: R107
Summary of the method: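 Apparent KD is reported per design as the median of normalised binding-curve fits across its clusters. The RNA switches were made by on-chip transcription from Illumina sequencing clusters. SNAP-549-labelled MS2 coat protein was then added in twofold steps (0.7 or 1.5 nM to 3 µM; 0.8–1.5 h to 10–20 min per step) in 100 mM Tris-HCl pH 7.5, 80 mM KCl, 4 mM MgCl2, without or with constant ligand.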

[1] = input ligand: theophylline 20 uM
[2] = input ligand: theophylline 2 mM
[3] = input ligand: tryptophan 2.4 mM

| Sequence | apparent KD of MS2 coat protein (input ligand: arginine 13.2 mM) [nM] | apparent KD of MS2 coat protein (input ligand: none) [nM] | apparent KD of MS2 coat protein [1] [nM] | apparent KD of MS2 coat protein [2] [nM] | apparent KD of MS2 coat protein [3] [nM] |
| --- | --- | --- | --- | --- | --- |
| AUUGACGUUGCGGCCGCCACUAGGCGUUCCCGGACAUGAGGAUCACCCAUGUGCUAGAGUGUAACUAGGACCGGGUAACCUCAGC [Verevean] | 124 | 103 | 290 | 260 | 176 |
| AUUGUGAAGUCGGCCGCCACUGCAUAGUUUAACCACAUGUAACAUGAGGAUCACCCAUGUAAUGACAGGACCGGGACAAUAGUAA [JR_SSTryptoB_Sub023] | 22.2 | – | 41.9 | 29.9 | – |
| AUUGUGAAGUCGGCCGCCACUGCAUAGUUUAACCUCUUUUAACAUGAGGAUCACCCAUGUAAUGACAGGACCGGGACAAUAGUAA [JR_SSTryptoB_Sub022] | 54.3 | – | 92.3 | 79.7 | – |
| AUUUUUCUAUCAGAUACCAGACAACUCCAAACAUGAGGAUCACCCAUGUAUUGGGUGUUCGUCCCUUGGCAGCUGUUAAUGUUAA [JR_SSTheophyB_Sub003] | 24.6 | – | 18.1 | – | 16.9 |
| CAAAAUAUCGGAAGGAGCGCGGGUAGGCGGGUUGGAUCACAUGAGGAUCACCCAUGUAAAUCGCAGGUAGGUCGCCGAUAACGCG [XArg-B27] | 52.9 | 19.9 | 60.4 | 37.9 | 30.1 |
| CAAAGUUCGUCUCUGGUCCUCUAAUCGGCUCGAGGACCGGUACGGCCGCCACUCGCCCGACAUGAGGAUCACCCAUGUCUGUAAA [Dilaanis] | 15.5 | – | 23 | 16.8 | – |
| CAAGAAGUAACUGAUACCAGUGUACUGACAUGAGGAUCACCCAUGUUGGGUUUUGUUGUACACCCUUGGCAGCAGAAUCUUCUUG [AstrosExyTheB#22] | 46.9 | – | 74.8 | – | 58.1 |
| CACAUGAGGAUCACCCAUGUCUGAACUGAAGGAGCGCUAAAUAAGGCAGGUAGGUCGCGGAAUCCCGGGUGCAUAUGCACCCGGG [9.aB] | 14.6 | 32 | 30.8 | 26.3 | 20.9 |
| CACGAAAGAUCGGCCGCCACUAGCCUGUGUGUACUAGCACAUGAGGAUCACCCAUGUUCUUGCGUUAGGACCGGGAUUGAGCGUG [#05 Exclusion Tryptophan B] | 17.1 | 26.8 | 27.9 | 33.9 | 25.5 |
| CAGAACAUGAGGAUCACCCAUGUUAGGGAUACCAGCUCAGACAUGGGCCCUUGGCAGCUCUAUGGCUGACGAAAGUCAGCAUCUG [#16 SameState-TheophyllineA] | 70.5 | 41.7 | 874 | 3.01 | 42.5 |
| CAGGCUAGGACGGCCGCCACUGUGGCUACGGUACAUGAGGAUCACCCAUGUUUGUGGUUGAUCUACAGGACCGGGUCCUGACACG [Letisoonri] | 22.2 | – | 134 | 278 | – |
| CAGUCAGUCAGUCAAUGAGUGAGGCAUGAAGGAGCGUGGGAAACCACAGGUAGGUCGCAUGCGAAACAUGAGGAUCACCCAUGUU [SSArg A #3] | 29.4 | 47.9 | 42.5 | 51.9 | 26.3 |
| CAUAUAUAUUGAAGGAGCGUCGAAAAUGGGUAAACAUGAGGAUCACCCAUGUAAAGGGAACGACAGGUAGGUCGCAAUAUAUAUG [AstromonsSSArgB#4] | 115 | 181 | 199 | 177 | 146 |
| CAUGUUGUUGAAGAUACCAGAUUCUGAACGUUCACAUGAGGAUCACCCAUGUAAGUCCGAGUCCCUUGGCAGCUUAUACAGGUGG [Reatlala] | 43.9 | – | 50.8 | – | 47.7 |
| CCCAGUUAGAUCAAAGGAAUUAUACUCGAAGGAGCGUCAUAGUAGGCAGGUAGGUCGCGAGACAUGAGGAUCACCCAUGUAGAGA [azqmullin] | 30.3 | 37.9 | 51.2 | 41 | 37.8 |
| CCGAACAUGAGGAUCACCCAUGUUAGGGAUACCAGCCCAGACAUGGGCCCUUGGCAGCUCUAUAGCUGACGAAAGUCAGCAUCGG [#14 SameState-TheophyllineA] | 34.9 | – | 65.7 | – | 44.4 |
| CCGACGAUGACCAAAGGUCAGGAGUGCGCACGAGGACCGGUACGGCCGCCACUCGAGGAGUGGGACAUGAGGAUCACCCAUGUAA [X-TryptA-ms2@65-1] | 23.9 | 22.4 | 29 | 20.6 | 21.8 |
| CCGUUUUAUGGCGACAUAGGGCGGACUGAAGGAGCGGUAUAAUAGCCAGGUAGGUCGCAGAGAUCCACAUGAGGAUCACCCAUGU [!0.aB] | 73.9 | 34.3 | 51.5 | 42.9 | 34.3 |
| CCUAUGCAGUCGGCCGCCACUGAGUCCUCAAUAAUAAAUUAUUAUACAUGAGGAUCACCCAUGUACAGGACCGGGACUGUAUAGG [Ex Tryptophan B 14] | 89 | 122 | 244 | 237 | 214 |
| CCUGCUACGGGAAACCGUAGCAGGAAUGAUACCAGUAGGAAAGACUACCCUUGGCAGCAUGGGAAACAUGAGGAUCACCCAUGUU [SSThA NP+V+V2 #7 Same Structure] | 37.1 | – | 76.3 | – | 50.8 |
| CGCAACCCACAUGAGGAUCACCCAUGUGAAGGAGCGGCGAAUAAGCCAGGUAGGUCGCGCAUGAAUAAAUCAUGUAGGAAGCUAA [XArg-A 8 V1] | 9.8 | 10.8 | 13.2 | 12.7 | 9.79 |
| CGCGAGACGGCGGCCGCCACUUGUUGUUGGAAACUCGAGUUACAUGAGGAUCACCCAUGUCCUUAAAGGACCGGGCCGUAAGUAA [theeternabot_sameState_MS2_Trp_B_13] | 99.3 | – | 198 | 219 | – |
| CGCGCGACAUGAGGAUCACCCAUGUUCCCUCGAGGACCGGUACGGCCGCCACUCGAGGACAUGAGCAUCAGCCAUGUACCGGUCA [Default title] | 28.8 | – | 54.6 | 66.2 | – |
| CGCGUCCCGGACGAUACCAGAUAUGAGCGACACAUGAGGAUCACCCAUGUCAAUCAUGAGAUCCCUUGGCAGCGUUUGCACAACU [theeternabot_sameState_MS2_Theo_B_8] | 81.2 | – | 210 | – | 183 |
| CGCUGGCCACAUGAGGAUCACCCAUGUGAAGGAGCGGCGAAUAAGCCAGGUAGGUCGCGCAUGAAUAAAUCAUGUAGGUUGCGAA [XArg-A 11 V2] | 16.9 | 13.4 | 14.9 | 17.9 | 14.5 |
| CGGGAACGAUAUGAUACCAGCCUGCGAAAGAAUGCUUAGUACAUGAGGAUCACCCAUGUAGGCCCUUGGCAGCAUCGACUCAAGU [theeternabot_exclusion_MS2_Theo_B_4] | 13.1 | – | 18.1 | – | 13.2 |
| CGGUACAUGAGGAUCACCCAUGUGUCGGAUACCAGAGAGCCGGCUCUCCCUUGGCAGCUGGUGCGACAUGAGGAUCACCCAUGUG [Exclusion Theophylline A GF19] | 29.4 | 61.6 | 58.5 | 67.4 | 53.3 |
| CGGUGUAGGGUUAAUAGGCUGAGUACAGAAGGAGCGCGAAUAAACGCAGGUAGGUCGCUGGCGAACAUGAGGAUCACCCAUGUAU [Same State Arginine A GF 30] | 29.5 | 18.4 | 24 | 32 | 15.9 |
| CGUAGUAUCAGACAUGAGGAUCACCCAUGUCGAGGACCGGUACGGCCGCCACUCGGCAGUUUGCGUCCUCAGGUACUCCAGGUAA [Larirexea] | 14.8 | – | 27.9 | 26.1 | – |
| CUACAUUUGUAGAAACCGGUCAACAUUAUUCGAGGACCGGUACGGCCGCCACUCGUAUAUUUUAAUACAUGAGGAUCACCCAUGU [Tryptophan A 6] | 12.3 | – | 14.2 | 13.6 | – |
